Results on six molecules are retold here after paper PMC9076165 (RSC Advances, 2019).

Data set [1] in a line: Solubility of the peptide in assay buffer / stock solutions. In kind it is physicochemical. As to conditions: HK50 buffer (80 mM Hepes pH 7.6, 50 mM KCl), at concentrations equal to or higher than 10 μM.
For data set [2], the target named is T1, RsmC (rRNA small subunit methyltransferase C) (Escherichia coli (ASKA collection), UniProt P39406 1-343).
T1 sequence: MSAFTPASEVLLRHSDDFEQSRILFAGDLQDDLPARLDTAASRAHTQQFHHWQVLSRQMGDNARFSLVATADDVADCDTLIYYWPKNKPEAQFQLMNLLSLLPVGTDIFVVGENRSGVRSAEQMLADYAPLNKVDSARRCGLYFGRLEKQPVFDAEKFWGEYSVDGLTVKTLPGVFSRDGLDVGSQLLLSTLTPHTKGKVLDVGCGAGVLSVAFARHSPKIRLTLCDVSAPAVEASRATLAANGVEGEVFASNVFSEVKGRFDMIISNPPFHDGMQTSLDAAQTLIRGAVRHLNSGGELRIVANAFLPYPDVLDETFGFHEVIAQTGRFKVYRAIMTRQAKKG
The data set can be described thus: FRET.

In data set [3] the target is T2, 3h34P1 heptapeptide (L) (synthetic (Ph.D.-7 phage display)).
T2 chain: KNHDWGV
The data set can be described thus: tryptophan fluorescence quenching.

Data set [4] deals with T2, 3h34P1 heptapeptide (L). The data set can be described thus: tryptophan fluorescence quenching.
For data set [5], the target named is T2, 3h34P1 heptapeptide (L). The data set can be described thus: tryptophan fluorescence quenching.
The target of data set [6] is T2, 3h34P1 heptapeptide (L). Kind of data set: tryptophan fluorescence quenching.

Where two headings read alike, the source gives them in different places. Where a SMILES comes first, the peptide text is derived from it.

For `CC(C)[C@H](NC(=O)CNC(=O)[C@H](Cc1c[nH]c2ccccc12)NC(=O)[C@H](CC(=O)O)NC(=O)[C@H](Cc1c[nH]cn1)NC(=O)[C@H](CC(N)=O)NC(=O)[C@@H](N)CCCCN)C(=O)O` [P1] (H-KNHDWGV-OH), in data set [1], the “Solubility in the buffer used for FRET titrations” value is listed as “low solubility”.

For the molecule CCGUCAAGUCAUCAUGGCCC (ssRNA) [3h34-Cy3], in data set [2], the binding result is on record as “binds”. Turning to GAGGCCUUCGGGCCUC (ssRNA) [Control RNA 2], the binding result with 3h34P1 heptapeptide (L) [3] is “no binding”. In the data set with 3h34P1 heptapeptide (L) [4], CCGUCAAGUCAUCAUGGCCC (ssRNA) [3h34] had a Kd of 18 ± 5 nM.

For the molecule GGUGCUGCAUGGCUGUCGG (ssRNA) [5h34], in the data set with 3h34P1 heptapeptide (L) [5], the binding result is on record as “binds”. On to GCCCUGAAAAGGGC (ssRNA) [Control RNA 1], for which the binding result with 3h34P1 heptapeptide (L) [6] was “no binding”.
